According to patent publication US20260008852A1 (CRYSTAL BIOSCIENCE, published 2026):

T1: His-tagged cynomolgus monkey B7-H3 (cynomolgus monkey)
T1 chain: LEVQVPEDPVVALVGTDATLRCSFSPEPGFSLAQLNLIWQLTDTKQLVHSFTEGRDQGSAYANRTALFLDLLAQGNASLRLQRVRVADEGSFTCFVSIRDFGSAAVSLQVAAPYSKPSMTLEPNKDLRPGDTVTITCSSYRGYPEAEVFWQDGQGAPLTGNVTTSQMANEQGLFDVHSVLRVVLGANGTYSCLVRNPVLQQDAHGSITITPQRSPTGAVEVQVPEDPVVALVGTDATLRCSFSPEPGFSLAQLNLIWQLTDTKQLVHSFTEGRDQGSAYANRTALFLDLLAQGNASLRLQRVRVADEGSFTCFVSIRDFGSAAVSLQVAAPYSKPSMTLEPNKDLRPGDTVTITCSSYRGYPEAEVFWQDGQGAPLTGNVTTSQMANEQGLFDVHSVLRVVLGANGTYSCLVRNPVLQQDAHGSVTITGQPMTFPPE

T2: His-tagged mouse B7-H3 (mouse, UniProt Q8VE98 29-244, limits assumed)
T2 construct: Bought His-tagged protein coated on the ELISA plate; also called mu B7-H3; murine B7-H3
T2 sequence (looked up): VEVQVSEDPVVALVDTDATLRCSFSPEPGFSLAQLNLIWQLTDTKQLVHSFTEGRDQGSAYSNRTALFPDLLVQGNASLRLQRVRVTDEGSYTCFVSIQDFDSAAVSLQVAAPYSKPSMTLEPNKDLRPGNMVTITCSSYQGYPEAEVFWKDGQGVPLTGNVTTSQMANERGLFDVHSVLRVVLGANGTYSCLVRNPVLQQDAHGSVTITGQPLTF

T3: B7-H3 on B7-H3-expressing CHO cells (Genescript) (UniProt Q5ZPR3 29-534, limits assumed)
T3 construct: whole, on cells; also called CHO-K1/B7-H3; MFI B7-H3
T3 sequence (looked up): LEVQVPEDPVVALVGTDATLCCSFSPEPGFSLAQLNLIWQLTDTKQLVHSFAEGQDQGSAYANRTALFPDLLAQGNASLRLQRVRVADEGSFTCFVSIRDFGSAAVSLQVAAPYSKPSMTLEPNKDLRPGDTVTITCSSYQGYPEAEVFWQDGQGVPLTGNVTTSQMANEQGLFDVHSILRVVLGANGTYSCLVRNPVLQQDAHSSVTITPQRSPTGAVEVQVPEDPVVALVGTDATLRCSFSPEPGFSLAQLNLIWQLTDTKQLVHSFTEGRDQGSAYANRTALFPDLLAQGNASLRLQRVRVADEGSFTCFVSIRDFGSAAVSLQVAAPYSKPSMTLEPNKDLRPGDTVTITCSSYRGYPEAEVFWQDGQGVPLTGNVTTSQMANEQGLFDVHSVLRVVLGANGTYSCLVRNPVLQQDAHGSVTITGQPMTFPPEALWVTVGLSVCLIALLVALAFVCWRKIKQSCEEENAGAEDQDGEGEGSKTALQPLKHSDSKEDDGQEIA

T4: His-tagged human B7-H3 (human, UniProt Q5ZPR3-2 29-245, limits assumed)
T4 construct: Bought His-tagged protein coated on the ELISA plate; also called hu B7-H3; CD276
T4 sequence (looked up): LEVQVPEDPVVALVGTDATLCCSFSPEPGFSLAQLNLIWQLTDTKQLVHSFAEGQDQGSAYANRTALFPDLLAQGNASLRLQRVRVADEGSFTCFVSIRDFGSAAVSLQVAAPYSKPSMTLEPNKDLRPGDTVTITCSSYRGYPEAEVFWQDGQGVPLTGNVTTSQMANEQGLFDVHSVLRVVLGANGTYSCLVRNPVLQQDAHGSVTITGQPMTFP


Assays:
[1] = molecular target: T1, His-tagged cynomolgus monkey B7-H3; test: ELISA, coated His-tagged antigen, scFv-Fc 1 ug/ml
[2] = molecular target: T2, His-tagged mouse B7-H3; test: ELISA, coated His-tagged antigen, scFv-Fc 1 ug/ml
[3] = molecular target: T2, His-tagged mouse B7-H3; test: ELISA, coated His-tagged antigen
[4] = molecular target: T3, B7-H3 on B7-H3-expressing CHO cells …; test: flow cytometry, B7-H3-expressing CHO cells, 10 ug/ml
Procedure, shortened: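 Antibodies at 10 μg/ml in PBS/1% BSA/0.01% NaN3 incubated 60 min on ice with ~1.5e5 cells; parental CHO cells as counterscreen. After washing, read by flow cytometry; values are mean fluorescent intensities (MFI).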

[5] = molecular target: T4, His-tagged human B7-H3; test: ELISA OD450 on hu B7-H3 over OD450 on mu B7-H3
[6] = molecular target: T4, His-tagged human B7-H3; test: ELISA, coated His-tagged antigen, scFv-Fc 1 ug/ml

ELISA OD450 @ 1 ug/ml [1]	ELISA OD450 @ 1 ug/ml [2]	binding result [3]	MFI @ 10 ug/ml [4]	hu:mu ratio [5]	ELISA OD450 @ 1 ug/ml [6]	Binder
0.769 OD450	0.051 OD450	no binding (tested: 1 ug/ml)	11600 MFI			40579p1.H11 (scFv, V domains shown, Tested as scFv-Fc (Expi293 supernatant)) VH: EVQLLESGGGLVQPGGSLRLSCAASGFTFDDYGMSWVRQAPGKGLEWVSAIRSKASSYATYYADSVKGRFTVSRDNSENTLYLQMNSLRAEDTAVYYCAKHRSNYYFMDVWGQGTTVTVSS VL: EIVLTQSPGTLSLSPGERATLSCRASQSVGSDLAWYQQRPGQAPRLLIYAASSRATDIPDRFSGSGSGTDFTLTISSLQSEDFAVYYCQQYYSWPPLTFGGGTKVEIK
2.34 OD450	0.055 OD450	no binding (tested: 1 ug/ml)	25400 MFI	38.4	2.11 OD450	40511p1.2.A8 (scFv, V domains shown, Tested as scFv-Fc (Expi293 supernatant)) VH: not shown VL: EIVLTQSPATLSVSPGERATFSCRASQNVRSYLAWYQQKPGQAPRLLIFNTVTRATGIPDRFSGSGSGTDFTLTISSLEPEDFAVYYCQQYYDWPPLTFGGGTKVEIK
